Where a chain is given by its changes, count along the chain named.
B1: Ma06_p20150.1: snakin antimicrobial protein, Musa acuminata (protein, listed as Musa acuminata)
chain: EREINCEAKCSHRCSKASRHKMCMRACVDCCHKCHCVPPGTYGHKEECPCYAHMKTRHGKPKCP
B2: Ma09_p27770.1: snakin antimicrobial protein, Musa acuminata (protein, listed as Musa acuminata)
chain: GSLKPSECNNKCDFRCSATSHKKPCLFFCKECCATCLCVPPGTYGNKEACPCYNNWKTKEGGPKCP
B3: Ma09_p13940.1: snakin antimicrobial protein, Musa acuminata (protein, listed as Musa acuminata)
chain: RKAVVEDEPPVSGGGDGKPPVPVIDCAGLCGVRCSRHSRPNLCKRACGTCCFRCKCVPPGTSGNREMCGACYTNMTTHGNRTKCP
B4: Ma07_p21450.1: snakin antimicrobial protein, Musa acuminata (protein, listed as Musa acuminata)
chain: KDAFMEAGYAKAPVVAPVPAPPAPRIIKDTKECGDACKDRCKLHSRQNVCSRACITCCSVCKCVPPGTYGHTELCGKCYTDWKTHGNRTKCP
B5: Ma09_p21930.1: LTP antimicrobial protein, Musa acuminata (protein, listed as Musa acuminata)
chain: VTCNPLELSPCSSAVLSGARPSAACCAKLKEQQPCFCQYKKNPSLKDYVNSDNGKKALKACGVPIPSC
B6: Ma04_p17200.1: LTP antimicrobial protein, Musa acuminata (protein, listed as Musa acuminata)
chain: ITCGQVTSALSSCISYATGKGPLSTACCSGVKSLNSAAKTTADRKTACTCIKSTVSRLSGAQAGAIAGIPGKCGVSIGYPISASTDCSKVK
B7: Ma02_p13180.1: TLP antimicrobial protein, Musa acuminata (protein, listed as Musa acuminata)
chain: ATFTLTNNCEYTVWPGVLSSAGTAPLSITGFALQQGESRSLDVPAAWSGRFWGRTLCAADASGKFSCGTGDCGSGAVECSGSGAAPPATLAEFTLDGSGGMDFYDVSLVDGYNLPMLVVPQGGSGGACSSTGCLVDLNGVCPSDLKVVLPTSEGGSESVACRSACETFGSPQYCCSGDYGNPNTCKPSSYSQFFKNACPRAYSYAYDDATSTFTCASANYLITFCPSTTSQKSSDSNPEAAGIPSSNNSTMIYSSEEVSHATPTVPRVAVALALAVVALCLGF
B8: Ma04_p17240.1: LTP antimicrobial protein, Musa acuminata (protein, listed as Musa acuminata)
chain: ITCSQVYGDLISCVGYLQGGPIKQQCCSGIKSLIAAARTTQDRRTACGCIKTAAAGLSGIDYGRVSQLPGQCGISVSYKISPNVDCSKIN
B9: Ma04_p17190.1: LTP antimicrobial protein, Musa acuminata (protein, listed as Musa acuminata)
chain: B8 chain with Q41K
B10: Ma06_p33150.1: TLP antimicrobial protein, Musa acuminata (protein, listed as Musa acuminata)
chain: TFEIVNRCSYTVWAAAVPGGGRQLNQGQSWTINVNAGTTGGRIWGRTGCSFDGSGRGRCQTGDCGGVLSCTAYGSPPNTLAEFALNQFNNLDFFDISLVDGFNVPMDFSPTSGGCRGIRCAADINGQCPGALKAPGGCNNPCTVFKTDQYCCNSGSCSPTDYSRFFKRNCPDAYSYPKDDQTSTFTCPGGTNYRVVFCP
B11: Ma07_p17800.1: TLP antimicrobial protein, Musa acuminata (protein, listed as Musa acuminata)
chain: ATFDIVNQCSFTVWAAAVPGGGRQLDPSQTWSINVNPGTTGGRVWARTDCSFDGSGSGSCQTGDCGGLLECQGYGTPPNTLAEFALNQFQNMDFIDISLVDGFNVPMDFSPTSGDCRGIRCSADINGQCPAELRAPGGCNNPCTVFKTDEYCCTSGSCGPTNYSMFFKNNCPDAYSYPKDDATSTFTCPGGTNYRVVFCP
B12: Ma08_p22790.1: snakin antimicrobial protein, Musa acuminata (protein, listed as Musa acuminata)
chain: RISLAPTAQPGNPLGPTPQPIKFPMYGATPGSLQPQECSGRCAGRCSATAYKKPCMFFCQKCCAKCLCVPPGTYGNKQVCPCYNNWKTKRGGPKCP
B13: Ma09_p26730.1: TLP antimicrobial protein, Musa acuminata (protein, listed as Musa acuminata)
chain: ATFEIVNWCPFTVWAAAVPGGGRQLDRGQTWVLDVNPGTTGGRIWARTGCSFDGSGSGSCQTGDCGGVLACQGYGSPPNTLAEFALNQFDNLDFLDVSLVDGFNVPMEFSPITGNCSAIRCLADIKGQCPAELWTPGGCNNPCTVFKTDEYCCTSGSCGPTNYSNFFKSNCPDAYSYPKDDATSTFTCPGNGDYKVIFCPSDGYPTRFGRTAVRFVIPRA
B14: Ma10_p18110.1: snakin antimicrobial protein, Musa acuminata (protein, listed as Musa acuminata)
chain: GSAFCGSKCKVRCSKASVKDRCLKYCGLCCEQCRCVPSGTYGHKDECPCYRDKYTGSGKRRRPKCP
B15: Ma03_p07220.1: TLP antimicrobial protein, Musa acuminata (protein, listed as Musa acuminata)
chain: ATLALYNKCRETVWPGIQPSAGKAVLARGGFQLLPNQAYSLRLPAGWSGRVWGRRGCAFDPATGRGRCATGDCGGALYCNGLGGAPPATLAEFTLGQGRQQDFYDVSLVDGYNLGMSMTPFRGSGQCGRAGCVSDLNEVCPAGLAVRGGTDNRVVACKSACSAFGSPRYCCTGSFGGPQQCKPTAYSRLFKAACPRAYSYAYDDPTSILTCTGASYLVTFCPQH
B16: Ma02_p17990.1: TLP antimicrobial protein, Musa acuminata (protein, listed as Musa acuminata)
chain: QYPAMTLTVVNNCPFTVWPAIQPNSGHDVLERGGFALPTVTHRSFPAPTQHWSGRIWARTGCTYANGRFSCATGDCGGRLECGGLGGAAPATLAQVTLHHGGQQDLSSYGVSLVDGFNVGMTVTPHEGKGRCPVVGCRENLLATCPDVLQLRAPAGGGQVVGCKSGCQAFGTDELCCRNMYNSPRTCRASSYSEFFKHACPATFTYAHDSPSLTHECAAPRELKVIFCH
B17: Ma06_p33170.1: TLP antimicrobial protein, Musa acuminata (protein, listed as Musa acuminata)
chain: NFEIVNRCSYTVWAAAVPGGGRQLNQGQSWTINVKAGTTGGRIWGRTGCSFDGSGHGRCQTGDCGGLLACTAYGSPPNTLAEFALNQYSNQDYVDISLVDGFNVPMDFSPTSGGCRGMRCTADINKKCPTALKAPGGCNNPCTVFKTDQYCCNSGSCQPTEYSKFFKSNCPDAYSYPKDDPTSLVACPGGTNYRVVFCP
B18: Ma04_p30830.1: LTP antimicrobial protein, Musa acuminata (protein, listed as Musa acuminata)
chain: ATCNPTELTPCAAAILKSSPPSSLCCSKLKSQAPCFCQYQKNPSLSRYISGGRKVAAACGVPVPSC
B19: Ma11_p18240.1: LTP antimicrobial protein, Musa acuminata (protein, listed as Musa acuminata)
chain: AIGCGQIISYLIPCLGYAQGTGPLTDGCCSGVRALNGAAQTTPDRQATCNCLKRSAAGVSGIQPGLIAGIPSKCGINVPYRISPSTDCSRVR
B20: Ma06_p00870.1: snakin antimicrobial protein, Musa acuminata (protein, listed as Musa acuminata)
chain: KDLPAEEFGVSLAEKGHKHKHSGFSEAECPGACQYRCSKTAYKKPCLFFCQKCCFKCRCVPPGTYAHKEVCPCYNNWKTKRGGPKCP
B21: Ma06_p09450.1: snakin antimicrobial protein, Musa acuminata (protein, listed as Musa acuminata)
chain: ADSAYCKSKCKVRCAKAGVMDRCLYYCGMCCEECKCVPSGTYGNKDECPCYRDKVTKDDKKKSKCP

system: Foc_TR4; test: In vitro spore germination and mycelial growth assay; format: cell-based, Fusarium oxysporum f.sp. cubense Tropical Race 4; settings: Foc_TR4 spores, purified Pichia-secreted protein, low ionic strength media, 25° C., A595 at 48 hours; read-out: IC50 (μM, CE fraction)

First: Ma11_p12930.1: defensin antimicrobial protein, Musa acuminata (RVCRYASRSFRGLCFSDTNCAHVCQTEGFNGGHCHGLRRRCMCLRRGC; listed as Musa acuminata)
Second: Mba02_g12080.1: defensin antimicrobial protein, Musa acuminata, without yeast signal peptide (RTCESQSHKFVGPCVREANCANVCHTEGFHGGVCRGTLIHRKCYCTKNC; listed as Musa acuminata)
The IC50 of the first is 35-fold lower: 0.17 ± 0.006 µM for the first, 6 ± 0.59 µM for the second. The first is the more potent here.

Compared with “Ma04_p36140.1: defensin antimicrobial protein, Musa acuminata (RTCESASTRFKGTCVRSSNCASVCQGEGFPDGKCEGVRRRCMCRKPC; listed as Musa acuminata)”, “Ma08_p13660.1: defensin antimicrobial protein, Musa acuminata (RKCESASHKFKGLCFRASNCANVCKTEGFHGGHCRGLRRRCFCTKHCNSAT; listed as Musa acuminata)” is higher in IC50: 0.84 ± 0.06 µM for the first, greater than 25 µM for the second. The first is the more potent here.

Going from “Ma06_p21420.1: defensin antimicrobial protein, Musa acuminata (KICRLPSIGFRGPCTSDKNCAKVCRREGFDSGDCEGYTMGCLCNKHC; listed as Musa acuminata)” to “GB ID: RRT50697.1: defensin antimicrobial protein, Musa acuminata (RTCESASSRFKGTCVRSSNCASVCQGEGFPDGRCEGLRRRCMCRKPC; listed as Musa acuminata)”, the IC50 falls from 3 ± 0.17 µM to 0.51 ± 0.01 µM (5.9-fold). The second is the more potent here.

First: Ma02_p12840.1: defensin antimicrobial protein, Musa acuminata (RTCESQSHKFVGPCVRKANCGNVCQTEGFHGGVCRGSLIHRKCYCTKNC; listed as Musa acuminata)
Second: B1
The IC50 of the first is 1.6-fold higher: 0.86 ± 0.07 µM for the first, 0.53 ± 0.01 µM for the second. The second is the more potent here.

First: B2
Second: B3
The IC50 of the first is 4.8-fold lower: 0.08 ± 0.003 µM for the first, 0.38 ± 0.01 µM for the second. The first is the more potent here.

Compared with B4, B5 is 2.1-fold higher in IC50: 0.9 ± 0.05 µM for the first, 1.86 ± 0.08 µM for the second.

First: B6
Second: B7
The IC50 of the first is lower: 2.09 ± 0.06 µM for the first, greater than 30 µM for the second. The first is the more potent here.

Compared with B8, B9 is 1.8-fold higher in IC50: 1.92 ± 0.13 µM for the first, 3.47 ± 0.21 µM for the second. The first is the more potent here.

Compared with B10, B11 is higher in IC50: 0.029 ± 0.001 µM for the first, greater than 25 µM for the second.

First: B12
Second: B13
The IC50 of the first is lower: 0.52 ± 0.08 µM for the first, greater than 31 µM for the second. The first is the more potent here.

First: B14
Second: B15
The IC50 of the first is 150-fold higher: 1.31 ± 0.03 µM for the first, 0.009 ± 0.0005 µM for the second.

Going from B16 to B17, the IC50 falls from 0.64 µM to 0.052 ± 0.002 µM (12-fold).

Going from B18 to B19, the IC50 falls from 6.34 ± 0.23 µM to 2.25 ± 0.16 µM (2.8-fold).

Compared with B20, B21 is lower in IC50: greater than 16 µM for the first, 2.71 ± 0.53 µM for the second. The second is the more potent here.

— patent publication US20240141372A1, “TRANSGENIC BANANA PLANTS HAVING INCREASED RESISTANCE TO FUSARIUM OXYSPORUM TROPICAL RACE 4 AND METHODS OF PRODUCING SAME” (Elo Life Systems, priority 2022, published 2024)
